Test results reported in patent US9988424 (DUKE UNIVERSITY, dated 2018).
Read-outs that look alike come from different tables or passages of the source.

T1: gp70 B.CaseA2 V1/V2/V169K (HIV-1 V1V2 on murine leukemia virus gp70)
T1 chain: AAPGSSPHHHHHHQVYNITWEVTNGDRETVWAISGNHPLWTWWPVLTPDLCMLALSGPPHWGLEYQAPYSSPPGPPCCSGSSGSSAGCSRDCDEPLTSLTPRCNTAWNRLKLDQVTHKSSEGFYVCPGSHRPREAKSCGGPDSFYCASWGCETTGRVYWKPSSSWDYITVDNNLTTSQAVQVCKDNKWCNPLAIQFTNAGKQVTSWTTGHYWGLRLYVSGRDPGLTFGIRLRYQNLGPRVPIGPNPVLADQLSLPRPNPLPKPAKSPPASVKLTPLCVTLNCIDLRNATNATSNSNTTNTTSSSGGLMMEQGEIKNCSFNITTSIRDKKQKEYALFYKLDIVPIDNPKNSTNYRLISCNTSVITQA

T2: gp70 B.CaseA2 V1/V2/V169K/E172V/E173H (HIV-1 V1V2 on murine leukemia virus gp70)
T2 construct: also called gp70 B.CaseA2 V1/V2 Mut3
T2 chain: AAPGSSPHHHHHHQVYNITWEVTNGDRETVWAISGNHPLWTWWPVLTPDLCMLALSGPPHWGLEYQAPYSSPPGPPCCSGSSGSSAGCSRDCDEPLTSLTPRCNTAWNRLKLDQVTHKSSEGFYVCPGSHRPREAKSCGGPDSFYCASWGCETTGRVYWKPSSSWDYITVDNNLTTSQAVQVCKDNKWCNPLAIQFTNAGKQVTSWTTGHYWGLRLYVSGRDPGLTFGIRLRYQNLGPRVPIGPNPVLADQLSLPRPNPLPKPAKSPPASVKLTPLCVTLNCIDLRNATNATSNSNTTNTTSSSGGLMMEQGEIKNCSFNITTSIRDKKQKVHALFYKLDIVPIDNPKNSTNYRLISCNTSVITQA

T3: AE.A244 V1/V2 Tags N156QN160Q (HIV-1)
T3 chain: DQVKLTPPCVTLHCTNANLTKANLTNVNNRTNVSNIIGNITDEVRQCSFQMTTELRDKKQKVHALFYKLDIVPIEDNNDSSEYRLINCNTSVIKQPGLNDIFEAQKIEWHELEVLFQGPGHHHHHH

T4: gp70 C.1086 V1/V2 (HIV-1 V1V2 on murine leukemia virus gp70)
T4 construct: also called C.gp70 1086C V1V2; C.1086gp70V1V2
T4 chain: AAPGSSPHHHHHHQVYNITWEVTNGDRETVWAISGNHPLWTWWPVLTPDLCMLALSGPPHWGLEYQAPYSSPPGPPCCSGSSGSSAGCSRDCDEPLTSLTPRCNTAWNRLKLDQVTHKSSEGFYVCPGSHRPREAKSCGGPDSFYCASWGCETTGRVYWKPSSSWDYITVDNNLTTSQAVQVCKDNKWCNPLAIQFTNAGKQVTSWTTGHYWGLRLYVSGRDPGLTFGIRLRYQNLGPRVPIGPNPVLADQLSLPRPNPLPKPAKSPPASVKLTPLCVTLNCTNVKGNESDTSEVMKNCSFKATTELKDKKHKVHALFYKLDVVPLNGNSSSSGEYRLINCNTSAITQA


Experiments:
AE.A244 V1V2 Tags [1] = biological target: AE.A244 V1V2 Tags (HIV-1); test: ELISA
AE.A244 V1V2 Tags [2] = biological target: AE.A244 V1V2 Tags (HIV-1); test: ELISA; remark: listed apart in the source
[3] = biological target: T1, gp70 B.CaseA2 V1/V2/V169K; test: ELISA
[4] = biological target: T2, gp70 B.CaseA2 V1/V2/V169K/E172V/E173H; test: ELISA
AE.A244 V1V2 Tags [5] = biological target: AE.A244 V1V2 Tags (HIV-1); test: ELISA; remark: listed apart in the source
[6] = biological target: T3, AE.A244 V1/V2 Tags N156QN160Q; test: ELISA; markers as in the legend printed on D00157
AE.A244 gp120 delta 11 [7] = biological target: T5, AE.A244 gp120 delta 11 (HIV-1); test: ELISA
T5 construct: also called E.A244gp120Δ11; AE.A244 Δ11 gp120

AE.A244 gp120 delta 11 [8] = biological target: T5, AE.A244 gp120 delta 11; test: ELISA; remark: listed apart in the source
C.1086 V1V2 Tags [9] = biological target: C.1086 V1V2 Tags (HIV-1); test: ELISA
gp70 C.1086 V1/V2 [10] = biological target: T4, gp70 C.1086 V1/V2; test: ELISA
C.1086 V1V2 Tags [11] = biological target: C.1086 V1V2 Tags (HIV-1); test: ELISA; remark: listed apart in the source
gp70 C.1086 V1/V2 [12] = biological target: T4, gp70 C.1086 V1/V2; test: ELISA
Env of AE.92TH023 virus = Env of AE.92TH023 virus (HIV-1); test: cell-based or functional assay
Env of AE.CM244 virus = Env of AE.CM244 virus (HIV-1); test: cell-based or functional assay
[13] = biological target: Env of 92TH023 K169Q virus (HIV-1); test: cell-based or functional assay
[14] = biological target: Env of TH023.6.I181L virus (HIV-1); test: cell-based or functional assay
Env of 703357.c02 virus = Env of 703357.c02 virus (HIV-1); test: cell-based or functional assay
[15] = biological target: Env of 703357.2.Q169K virus (HIV-1); test: cell-based or functional assay
[16] = biological target: Env of 703357.2.Q169KR170Q virus (HIV-1); test: cell-based or functional assay
[17] = biological target: Env of 703357.2.I181L virus (HIV-1); test: cell-based or functional assay
[18] = biological target: Env of 703357.2.Q169KI181L virus (HIV-1); test: cell-based or functional assay
[19] = biological target: Env of 703357.2.Q169KR170QI181L virus (HIV-1); test: cell-based or functional assay
Env of 427299.c12 virus = Env of 427299.c12 virus (HIV-1); test: cell-based or functional assay
[20] = biological target: Env of 427299.c12.Q169K virus (HIV-1); test: cell-based or functional assay
[21] = biological target: Env of 427299.c12.H81L virus (HIV-1); test: cell-based or functional assay
[22] = biological target: Env of 427299.c12.KL.Q169K/I181L virus (HIV-1); test: cell-based or functional assay
[23] = biological target: Env of CM244NW.4.K169Q virus (HIV-1); test: cell-based or functional assay
[24] = biological target: Env of CM244NW.6.I181L virus (HIV-1); test: cell-based or functional assay

Binder | EC50 (AE.A244 V1V2 Tags [1]) [nM] | EC50 (AE.A244 V1V2 Tags [5]) [nM] | binding result [6] | EC50 (AE.A244 gp120 delta 11 [7]) [nM] | EC50 (AE.A244 gp120 delta 11 [8]) [nM] | EC50 (gp70 C.1086 V1/V2 [10]) [nM] | EC50 (gp70 C.1086 V1/V2 [12]) [nM] | ID50 assayed in TZM-bl cells, TH023.6 (Env of AE.92TH023 virus) [µg/mL] | ID50 assayed in TZM-bl cells, CM244.ec1 (Env of AE.CM244 virus) [µg/mL] | ID50 assayed in TZM-bl cells, TH023.6.K169Q [13] [µg/mL] | ID50 assayed in TZM-bl cells, TH023.6.I181L [14] [µg/mL] | ID50 assayed in TZM-bl cells, 703357.c02 (Env of 703357.c02 virus) [µg/mL] | ID50 assayed in TZM-bl cells, 703357.2.Q169K [15] [µg/mL] | ID50 assayed in TZM-bl cells, 703357.2.Q169KR170Q [16] [µg/mL] | ID50 assayed in TZM-bl cells, 703357.2.I181L [17] [µg/mL] | ID50 assayed in TZM-bl cells, 703357.2.Q169KI181L [18] [µg/mL] | ID50 assayed in TZM-bl cells, 703357.2.Q169KR170QI181L [19] [µg/mL] | ID50 assayed in TZM-bl cells, 427299.c12 (Env of 427299.c12 virus) [µg/mL] | ID50 assayed in TZM-bl cells, 427299.c12.Q169K [20] [µg/mL] | ID50 assayed in TZM-bl cells, 427299.c12.H81L [21] [µg/mL] | other results
PG16 (antibody, V domains shown, also called mAb PG16; bnAb PG16) VH: QEQLVESGGGVVQPGGSLRLSCLASGFTFHKYGMHWVRQAPGKGLEWVALISDDGMRKYHSDSMWGRVTISRDNSKNTLYLQFSSLKVEDTAMFFCAREAGGPIWHDDVKYYDFNDGYYNYHYMDVWGKGTTVTVSS VL: QSALTQPASVSGSPGQTITISCNGTSSDVGGFDSVSWYQQSPGKAPKVMVFDVSHRPSGISNRFSGSKSGNTASLTISGLHIEDEGDYFCSSLTDRSHRIFGGGTKVTVL | 3.7 | 3.7 |  |  |  |  |  |  |  |  |  |  |  |  |  |  |  |  |  |  | EC50 (AE.A244 V1V2 Tags [2]): 5.6 nM; binding result [3]: no binding; binding result [4]: no binding
PG9 reverted unmutated ancestor antibody (antibody, V domains shown, also called PG9 RUA; PG9_RUA) VH: QVQLVESGGGVVQPGRSLRLSCAASGFTFSSYGMHWVRQAPGKGLEWVAVISYDGSNKYYADSVKGRFTISRDNSKNTLYLQMNSLRAEDTAVYYCAREAGGPDYRNGYNYYDFWSGYYNYYYMDVWGKGTTVTVSS VL: QSALTQPASVSGSPGQSITISCTGTSSDVGSYNLVSWYQQHPGKAPKLMIYEVSKRPSGVSNRFSGSKSGNTASLTISGLQAEDEADYYCCSLTSTRRWVFGGGTKLTVL |  |  | no binding (tested: 100 ug/ml) |  |  |  |  |  |  |  |  |  |  |  |  |  |  |  |  |  | 
PG16 reverted unmutated ancestor antibody (antibody, V domains shown, also called PG16 RUA; PG16_RUA) VH: QVQLVESGGGVVQPGRSLRLSCAASGFTFSSYGMHWVRQAPGKGLEWVAVISYDGSNKYYADSVKGRFTISRDNSKNTLYLQMNSLRAEDTAVYYCAREAGGPIWHDDVKYYDFNDGYYYYYYMDVWGKGTTVTVSS VL: QSALTQPASVSGSPGQSITISCTGTSSDVGSYNLVSWYQQHPGKAPKLMIYEVSKRPSGVSNRFSGSKSGNTASLTISGLQAEDEADYYCCSLTDRSHRIFGGGTKLTVL |  |  | no binding (tested: 100 ug/ml) |  |  |  |  |  |  |  |  |  |  |  |  |  |  |  |  |  | 
697D reverted unmutated ancestor antibody (antibody, V domains shown, also called 697D RUA) VH: QVQLVQSGAEVKKPGSSVKVSCKASGGTFSSYTISWVRQAPGQGLEWMGRIIPILGIANYAQKFQGRVTITADKSTSTAYMELSSLRSEDTAVYYCATSGVGLHFGYFDYWGQGTLVTVSS VL: QSVLTQPPSVSGAPGQRVTISCTGSSSNIGAGYDVHWYQQLPGTAPKLLIYGNSNRPSGVPDRFSGSKSGTSASLAITGLQAEDEADYYCQSYDSSLSGYVFGTGTKVTVL |  |  |  | > 667 | > 667 |  |  |  |  |  |  |  |  |  |  |  |  |  |  |  | 
CH59 reverted unmutated ancestor antibody (antibody, V domains shown, also called CH59 RUA; CH59_RUA) VH: EVQLVESGGGLVQPGRSLRLSCAASGFTFDDYAMHWVRQAPGKGLEWVSGISWNSGSIGYADSVKGRFTISRDNAKNSLYLQMNSLRAEDTALYYCAKDSPRGELPFDYWGQGTLVTVSS VL: SYELTQPPSVSVSPGQTARITCSGDALPKKYAYWYQQKSGQAPVLVIYEDSKRPSGIPERFSGSSSGTMATLTISGAQVEDEADYYCYSTDSSGNHRVFGGGTKLTVL | 0.13 | 0.13 |  | 15.5 | 15.5 | 11.3 | 11.3 | > 50 | > 50 | > 50 | > 50 | > 50 | > 50 | > 50 | > 50 | > 50 | > 50 | > 50 | > 50 | > 50 | EC50 (C.1086 V1V2 Tags [9]): 50.1 nM; EC50 (C.1086 V1V2 Tags [11]): 50.1 nM; ID50 assayed in TZM-bl cells, 427299.c12.KL.Q169K/I181L [22]: > 50 µg/mL; ID50 assayed in TZM-bl cells, CM244NW.4.K169Q [23]: > 50 µg/mL; ID50 assayed in TZM-bl cells, CM244NW.6.I181L [24]: > 50 µg/mL; EC50 (read off the curve) [6]: ~0.4 µg/mL
CH58 reverted unmutated ancestor antibody (antibody, V domains shown, also called CH58 RUA; CH58_RUA) VH: EVQLVQSGAEVKKPGESLKISCKGSGYSFTSYWIGWVRQMPGKGLEWMGIIYPGDSDTRYSPSFQGQVTISADKSISTAYLQWSSLKASDTAMYYCARLGGRYYYDSSGYYYFDYWGQGTLVTVSS VL: NFMLTQPHSVSESPGKTVTISCTRSSGSIASNYVQWYQQRPGSSPTTVIYEDNQRPSGVPDRFSGSIDSSSNSASLTISGLKTEDEADYYCQSYDSSSWVFGGGTKLTVL |  |  |  |  |  | > 66.7 | > 66.7 | > 50 | > 50 | > 50 | > 50 | > 50 | > 50 | > 50 | > 50 | > 50 | > 50 | > 50 | > 50 | > 50 | ID50 assayed in TZM-bl cells, 427299.c12.KL.Q169K/I181L [22]: > 50 µg/mL; ID50 assayed in TZM-bl cells, CM244NW.4.K169Q [23]: > 50 µg/mL; ID50 assayed in TZM-bl cells, CM244NW.6.I181L [24]: > 50 µg/mL
